In this assay the target is pseudo wild-type full-length CREB (unlabelled) (UniProt P16220). The experiment in a line: SEC-MALS. (In general: Size exclusion chromatography separates by hydrodynamic size, large species first.)

By stoichiometry N is commonly meant the number of molecules, sites or subunits per partner or assembly. Turning to “pseudo wild-type full-length CREB (unlabelled) (from UniProt P16220-2 1-327) (natural protein)”, the stoichiometry N was found to be 2.
